Measured values as given in PMC3200332.

Biological target: pyruvate ferredoxin oxidoreductase (POR) from P. furiosus (Pyrococcus furiosus)

Row | POR-linked H2 evolution activity (electrons from pyruvate via POR; ferredoxin had no significant effect) [U mg^−1] | POR-linked H2 evolution activity (electrons from pyruvate via POR) [U mg^−1] | Substance
1 | 0.2 |  | OE-SHI Dimer, heterodimeric form of P. furiosus soluble hydrogenase I (His9-PF0893 + PF0894) (from UniProt Q8U2E5 1-367) (complex)
2 |  | -0 | native Pyrococcus furiosus soluble hydrogenase I (SHI), heterotetramer PF0891-PF0894 (from UniProt Q8U2E5 1-367; Q8U2E5 1-367) (complex)
